Paper PMC9739478

Biological target: human von Willebrand factor (vWF) (human) (UniProt P04275)

platelet adherence to vWF-coated surface (LDH assay, normalised to PRP only = 100%) in the presence of GPIb-NPs, 1 mg/mL: 72%
platelet adherence to vWF-coated surface (LDH assay, normalised to PRP only = 100%) in the presence of dual-NPs (GPIbα and anti-CD34 HuscFv on one NP), 1 mg/mL: 76%
platelet adherence to vWF-coated surface (LDH assay, normalised to PRP only = 100%) in the presence of free GPIb: 86%
Substance: glycoprotein Ib alpha chain (GPIbα) (from UniProt P07359 17-652) (receptor)
